These results are taken from patent publication US7794719 (dated 2010).

Holding throughout (assay): SPR
A general note: SPR reads the build-up and loss of mass on a sensor chip optically.

The target in assay [1] is Aβ1-40 fibers (human).
For assay [2], the target named is Aβ1-42 fibers (human).
For assay [3], the target named is Aβ1-40 fibers (human). The source holds these as a separate data set.
The target in assay [4] is Aβ1-42 fibers (human). The source holds these as a separate data set.
For assay [5], the target named is Aβ1-42 fibers (human). This is another data set of the same source.
The target in assay [6] is Aβ1-40 fibers (human). This is another data set of the same source.
Assay [7] addresses Aβ1-42 fibers (human). This is another data set of the same source.
Assay [8] addresses Aβ1-40 fibers (human). This is another data set of the same source.

Where two headings read alike, the source gives them in different places.

B1: MS-R 8.2L1 Fab (antibody, V domains shown)
VH: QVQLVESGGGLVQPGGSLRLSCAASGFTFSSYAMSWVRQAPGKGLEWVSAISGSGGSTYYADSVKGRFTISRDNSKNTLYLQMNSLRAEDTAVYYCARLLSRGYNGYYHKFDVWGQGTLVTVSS
VL: DIVLTQSPATLSLSPGERATLSCRASQRVSGRYLAWYQQKPGQAPRLLIYGASSRATGVPARFSGSGSGTDFTLTISSLEPEDFATYYCQQLSSYPPTFGQGTKVEIKR
With B1, the results for the dissociation constant Kd in assay [1] and in assay [2] were 4.8 nM and 3.7 nM, respectively.

B2: MS-R 7.4H2 x 7.2L1 Fab (antibody, V domains shown)
VH: QLVESGGGLVQPGGSLRLSCAASGFTFSSYAMSWVRQAPGKGLEWVSAINYNGARIYYADSVKGRFTISRDNSKNTLYLQMNSLRAEDTAVYYCARGKGNTHKPYGYVRYFDVWGQGTLVTVSS
VL: DIVLTQSPATLSLSPGERATLSCRASQYVDRTYLAWYQQKPGQAPRLLIYGASSRATGVPARFSGSGSGTDFTLTISSLEPEDFATYYCQQIYSFPHTFGQGTKVEIKR
Take B2: the Kd in assay [3] and in assay [4] was 1.4 nM each time.

B3: MS-R 7.9H2 x 7.2L1(L1) Fab (antibody, V domains shown)
VH: QLVESGGGLVQPGGSLRLSCAASGFTFSSYAMSWVRQAPGKGLEWVSAINADGNRKYYADSVKGRFTISRDNSKNTLYLQMNSLRAEDTAVYYCARGKGNTHKPYGYVRYFDVWGQGTLVTVSS
VL: DIVLTQSPATLSLSPGERATLSCRASQYVDRTYLAWYQQKPGQAPRLLIYGASSRATGVPARFSGSGSGTDFTLTISSLEPEDFATYYCQQIYSFPHTFGQGTKVEIKR
Consider B3, for which the Kd in assay [3] and in assay [4] was 1.4 nM in each case.

B4: MS-R 3.4H7 x 3.4L7 Fab (antibody, V domains shown)
VH: QLVESGGGLVQPGGSLRLSCAASGFTFSSYAMSWVRQAPGKGLEWVSVISETGKNIYYADSVKGRFTISRDNSKNTLYLQMNSLRAEDTAVYYCARLTHYARYYRYFDVWGQGTLVTVSS
VL: DIVLTQSPATLSLSPGERATLSCRASQRLGRLYLAWYQQKPGQAPRLLIYGASSRATGVPARFSGSGSGTDFTLTISSLEPEDFATYYCQQTYDYPPTFGQGTKVEIKR
For B4, the figures for the Kd in assay [3] and in assay [4] were 1.19 nM and 1.23 nM, respectively.

B5: MS-R 7.11.H1 x 7.2.L1 IgG1 (antibody, V domains shown)
VH: QLVESGGGLVQPGGSLRLSCAASGFTFSSYAMSWVRQAPGKGLEWVSGINAAGFRTYYADSVKGRFTISRDNSKNTLYLQMNSLRAEDTAVYYCARGKGNTHKPYGYVRYFDVWGQGTLVTVSS
VL: DIVLTQSPATLSLSPGERATLSCRASQYVDRTYLAWYQQKPGQAPRLLIYGASSRATGVPARFSGSGSGTDFTLTISSLEPEDFATYYCQQIYSFPHTFGQGTKVEIKR
Take B5: the dissociation constant Kd in assay [5] stood at 0.67 nM; in assay [6], 0.14 nM; in assay [7], 0.15 nM; in assay [8], 0.66 nM.

B6: MS-R 7.2L1 Fab (antibody, V domains shown)
VH: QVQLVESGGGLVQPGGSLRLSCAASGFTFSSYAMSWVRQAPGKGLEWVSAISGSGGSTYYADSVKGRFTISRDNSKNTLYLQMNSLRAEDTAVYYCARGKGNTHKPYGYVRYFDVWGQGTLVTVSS
VL: DIVLTQSPATLSLSPGERATLSCRASQYVDRTYLAWYQQKPGQAPRLLIYGASSRATGVPARFSGSGSGTDFTLTISSLEPEDFATYYCQQIYSFPHTFGQGTKVEIKR
Regarding B6, the Kd in assay [1] is 13.3 nM; in assay [2], 12.7 nM.

B7: MS-R 3.4H7 x 3.4L9 Fab (antibody, V domains shown)
VH: QLVESGGGLVQPGGSLRLSCAASGFTFSSYAMSWVRQAPGKGLEWVSVISETGKNIYYADSVKGRFTISRDNSKNTLYLQMNSLRAEDTAVYYCARLTHYARYYRYFDVWGQGTLVTVSS
VL: DIVLTQSPATLSLSPGERATLSCRASRRIHVYYLAWYQQKPGQAPRLLIYGASSRATGVPARFSGSGSGTDFTLTISSLEPEDFATYYCQQTYDYPPTFGQGTKVEIKR
On to B7, for which the Kd was 2.66 nM in assay [3] and 3.51 nM in assay [4].

B8: MS-R 7.9.H7 IgG1 (antibody, V domains shown)
VH: QVELVESGGGLVQPGGSLRLSCAASGFTFSSYAMSWVRQAPGKGLEWVSAINASGTRTYYADSVKGRFTISRDNSKNTLYLQMNSLRAEDTAVYYCARGKGNTHKPYGYVRYFDVWGQGTLVTVSS
VL: DIVLTQSPATLSLSPGERATLSCRASQSVSSSYLAWYQQKPGQAPRLLIYGASSRATGVPARFSGSGSGTDFTLTISSLEPEDFATYYCLQIYNMPITFGQGTKVEIKR
For the molecule B8, the Kd turned out to be 0.7 nM in assay [5], 0.25 nM in assay [6], 0.24 nM in assay [7] and 0.69 nM in assay [8].

B9: MS-R 3.6L1 Fab (antibody, V domains shown)
VH: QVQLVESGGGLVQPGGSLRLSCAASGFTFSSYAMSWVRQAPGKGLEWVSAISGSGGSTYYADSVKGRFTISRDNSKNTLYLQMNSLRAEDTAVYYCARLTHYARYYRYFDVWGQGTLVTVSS
VL: DIVLTQSPATLSLSPGERATLSCRASQFIQRFYLAWYQQKPGQAPRLLIYGASSRATGVPARFSGSGSGTDFTLTISSLEPEDFAVYYCQQTYNYPPTFGQGTKVEIKR
B9: the results for the dissociation constant Kd in assay [1] and in assay [2] were 15.6 nM and 11.1 nM, respectively.

B10: MS-R 7.11L1 Fab (antibody, V domains shown)
VH: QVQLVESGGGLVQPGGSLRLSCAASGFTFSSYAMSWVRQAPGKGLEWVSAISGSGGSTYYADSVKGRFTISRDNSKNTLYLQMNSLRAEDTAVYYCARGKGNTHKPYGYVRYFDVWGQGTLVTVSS
VL: DIVLTQSPATLSLSPGERATLSCRASQRILRIYLAWYQQKPGQAPRLLIYGASSRATGVPARFSGSGSGTDFTLTISSLEPEDFATYYCQQVYSPPHTFGQGTKVEIKR
On to B10, for which the Kd in assay [1] turned out to be 1.1 nM; in assay [2], 1.2 nM.

B11: MS-R 3.4L7 Fab (antibody, V domains shown)
VH: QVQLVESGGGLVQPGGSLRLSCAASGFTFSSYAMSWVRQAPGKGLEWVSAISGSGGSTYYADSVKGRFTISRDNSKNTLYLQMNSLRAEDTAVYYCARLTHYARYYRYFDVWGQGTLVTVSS
VL: DIVLTQSPATLSLSPGERATLSCRASQRLGRLYLAWYQQKPGQAPRLLIYGASSRATGVPARFSGSGSGTDFTLTISSLEPEDFATYYCQQTYDYPPTFGQGTKVEIKR
Turning to B11, the Kd in assay [1] and in assay [2] was 9.3 nM each time.

B12: MS-R 8.1H1 x 8.2L1 Fab (antibody, V domains shown)
VH: QLVESGGGLVQPGGSLRLSCAASGFTFSSYAMSWVRQAPGKGLEWVSAISRSGSNIYYADSVKGRFTISRDNSKNTLYLQMNSLRAEDTAVYYCARLLSRGYNGYYHKFDVWGQGTLVTVSS
VL: DIVLTQSPATLSLSPGERATLSCRASQRVSGRYLAWYQQKPGQAPRLLIYGASSRATGVPARFSGSGSGTDFTLTISSLEPEDFATYYCQQLSSYPPTFGQGTKVEIKR
For B12, the values for the Kd in assay [3] and in assay [4] were 1.3 nM and 1.6 nM, respectively.

B13: MS-R 7.9H2 Fab (antibody, V domains shown)
VH: QLVESGGGLVQPGGSLRLSCAASGFTFSSYAMSWVRQAPGKGLEWVSAINADGNRKYYADSVKGRFTISRDNSKNTLYLQMNSLRAEDTAVYYCARGKGNTHKPYGYVRYFDVWGQGTLVTVSS
VL: DIVLTQSPATLSLSPGERATLSCRASQSVSSSYLAWYQQKPGQAPRLLIYGASSRATGVPARFSGSGSGTDFTLTISSLEPEDFATYYCLQIYNMPITFGQGTKVEIKR
Consider B13, for which the results for the dissociation constant (Kd) in assay [1] and in assay [2] were 5 nM and 5.7 nM, respectively.

B14: MS-R 3.6L2 Fab (antibody, V domains shown)
VH: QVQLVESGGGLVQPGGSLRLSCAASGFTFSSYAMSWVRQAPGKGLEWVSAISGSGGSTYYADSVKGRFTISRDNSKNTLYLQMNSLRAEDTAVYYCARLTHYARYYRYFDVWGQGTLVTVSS
VL: DIVLTQSPATLSLSPGERATLSCRASQFLSRYYLAWYQQKPGQAPRLLIYGASSRATGVPARFSGSGSGTDFTLTISSLEPEDFAVYYCQQTYNYPPTFGQGTKVEIKR
Take B14: the Kd came out at 13.7 nM in assay [1] and 13.1 nM in assay [2].

B15: MS-R 3.6.H5 x 3.6.L2 IgG1 (antibody, V domains shown)
VH: QLVESGGGLVQPGGSLRLSCAASGFTFSSYAMSWVRQAPGKGLEWVSAISESGKTKYYADSVKGRFTISRDNSKNTLYLQMNSLRAEDTAVYYCARLTHYARYYRYFDVWGQGTLVTVSS
VL: DIVLTQSPATLSLSPGERATLSCRASQFLSRYYLAWYQQKPGQAPRLLIYGASSRATGVPARFSGSGSGTDFTLTISSLEPEDFAVYYCQQTYNYPPTFGQGTKVEIKR
For the molecule B15, the dissociation constant Kd in assay [5] was 0.95 nM; in assay [6] it was 0.2 nM; in assay [7] it was 0.2 nM; in assay [8] it was 1.03 nM.

B16: MS-R 7.9H4 Fab (antibody, V domains shown)
VH: QLVESGGGLVQPGGSLRLSCAASGFTFSSYAMSWVRQAPGKGLEWVSAINAVGMKKFYADSVKGRFTISRDNSKNTLYLQMNSLRAEDTAVYYCARGKGNTHKPYGYVRYFDVWGQGTLVTVSS
VL: DIVLTQSPATLSLSPGERATLSCRASQSVSSSYLAWYQQKPGQAPRLLIYGASSRATGVPARFSGSGSGTDFTLTISSLEPEDFATYYCLQIYNMPITFGQGTKVEIKR
For B16, the Kd in assay [1] came out at 4.8 nM; in assay [2] it was 4.2 nM.

B17: MS-R 7.9 Fab (antibody, V domains shown)
VH: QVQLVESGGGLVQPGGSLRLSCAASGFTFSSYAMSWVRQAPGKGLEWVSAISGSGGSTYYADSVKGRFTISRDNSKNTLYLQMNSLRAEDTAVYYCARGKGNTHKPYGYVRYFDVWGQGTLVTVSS
VL: DIVLTQSPATLSLSPGERATLSCRASQSVSSSYLAWYQQKPGQAPRLLIYGASSRATGVPARFSGSGSGTDFTLTISSLEPEDFATYYCLQIYNMPITFGQGTKVEIKR
As to B17, the Kd stood at 31 nM in assay [1] and 93 nM in assay [2].

B18: MS-R 7.9.H2 IgG1 (antibody, V domains shown)
VH: QLVESGGGLVQPGGSLRLSCAASGFTFSSYAMSWVRQAPGKGLEWVSAINADGNRKYYADSVKGRFTISRDNSKNTLYLQMNSLRAEDTAVYYCARGKGNTHKPYGYVRYFDVWGQGTLVTVSS
VL: DIVLTQSPATLSLSPGERATLSCRASQSVSSSYLAWYQQKPGQAPRLLIYGASSRATGVPARFSGSGSGTDFTLTISSLEPEDFATYYCLQIYNMPITFGQGTKVEIKR
B18: the equilibrium dissociation constant (Kd) was 0.38 nM in assay [5], 0.12 nM in assay [6], 0.11 nM in assay [7] and 0.42 nM in assay [8].

B19: MS-R 3.4L9 Fab (antibody, V domains shown)
VH: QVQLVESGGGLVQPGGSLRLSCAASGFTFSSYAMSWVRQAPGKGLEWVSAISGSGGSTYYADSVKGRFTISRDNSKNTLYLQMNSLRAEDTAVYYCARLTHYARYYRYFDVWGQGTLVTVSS
VL: DIVLTQSPATLSLSPGERATLSCRASRRIHVYYLAWYQQKPGQAPRLLIYGASSRATGVPARFSGSGSGTDFTLTISSLEPEDFATYYCQQTYDYPPTFGQGTKVEIKR
On to B19, for which the results for the Kd in assay [1] and in assay [2] were 16.3 nM and 9.1 nM, respectively.

B20: MS-R 7.9H7 Fab (antibody, V domains shown)
VH: QVQLVESGGGLVQPGGSLRLSCAASGFTFSSYAMSWVRQAPGKGLEWVSAINASGTRTYYADSVKGRFTISRDNSKNTLYLQMNSLRAEDTAVYYCARGKGNTHKPYGYVRYFDVWGQGTLVTVSS
VL: DIVLTQSPATLSLSPGERATLSCRASQSVSSSYLAWYQQKPGQAPRLLIYGASSRATGVPARFSGSGSGTDFTLTISSLEPEDFATYYCLQIYNMPITFGQGTKVEIKR
For B20, the Kd in assay [1] is 1 nM; in assay [2], 0.9 nM.

B21: MS-R 7 Fab (antibody, V domains shown)
VH: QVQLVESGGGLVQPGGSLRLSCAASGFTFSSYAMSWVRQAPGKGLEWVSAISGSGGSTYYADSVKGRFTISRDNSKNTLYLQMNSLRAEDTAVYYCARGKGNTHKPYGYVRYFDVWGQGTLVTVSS
VL: DIVLTQSPATLSLSPGERATLSCRASQSVSSSYLAWYQQKPGQAPRLLIYGASSRATGVPARFSGSGSGTDFTLTISSLEPEDFATYYCFQLYSDPFTFGQGTKVEIKR
As to B21, the values for the Kd in assay [1] and in assay [2] were 1100 nM and 1710 nM, respectively.

A word on the Kd: it is the constant that tells how readily two partners part at equilibrium. A high value points to weaker binding.
